Consider two molecules from article PMC5080701, “TIS7 induces transcriptional cascade of methylosome components required for muscle differentiation”.

The target in data set [1] is T1, GST-TIS7 (TPA Induced Sequence 7) (mouse, UniProt P19182 1-449).
T1 sequence: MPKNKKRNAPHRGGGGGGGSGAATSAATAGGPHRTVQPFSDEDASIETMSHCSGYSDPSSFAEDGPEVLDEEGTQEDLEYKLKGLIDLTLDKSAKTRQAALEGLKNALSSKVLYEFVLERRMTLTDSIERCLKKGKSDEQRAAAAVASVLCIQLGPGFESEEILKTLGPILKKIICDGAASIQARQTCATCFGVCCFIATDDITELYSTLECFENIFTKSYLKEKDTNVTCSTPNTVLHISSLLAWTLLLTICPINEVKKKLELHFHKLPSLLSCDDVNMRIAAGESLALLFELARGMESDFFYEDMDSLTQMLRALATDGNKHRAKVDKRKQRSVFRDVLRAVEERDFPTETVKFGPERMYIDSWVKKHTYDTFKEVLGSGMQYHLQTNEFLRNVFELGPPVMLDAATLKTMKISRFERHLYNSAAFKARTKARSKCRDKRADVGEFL
The data set is described as follows: EMSA; blocked by 20-fold excess of unlabelled oligonucleotide; supershifted by TIS7 antibody; EMSA: 1 ug probe, 10 min, 5% native PAGE (50 mM Tris pH 7.5, 0.38 M glycine, 2 mM EDTA; run in TBE), binding buffer not stated; SPR: Biacore X100, SA chip, oligos annealed in 30 mM Na3PO4, 200 mM NaCl, 1 mM DTT pH 7.2, protein dialyzed in 50 mM Tris pH 7.4, 150 mM NaCl; running buffer and temperature not stated. Conditions: protein: recombinant; tags: N-terminal GST; blunt. For orientation: A gel shift assay detects complexes by their altered migration in electrophoresis.

Data set [2] addresses T1, GST-TIS7 (TPA Induced Sequence 7). In words: SPR; Kd value printed only in Fig. 4d; 10-fold difference in Kd between native and scrambled sequence; EMSA: 1 ug probe, 10 min, 5% native PAGE (50 mM Tris pH 7.5, 0.38 M glycine, 2 mM EDTA; run in TBE), binding buffer not stated; SPR: Biacore X100, SA chip, oligos annealed in 30 mM Na3PO4, 200 mM NaCl, 1 mM DTT pH 7.2, protein dialyzed in 50 mM Tris pH 7.4, 150 mM NaCl; running buffer and temperature not stated. Conditions: protein: recombinant; tags: N-terminal GST; label: 5'-biotin on sense strand; blunt. On the technique in general: SPR reads the build-up and loss of mass on a sensor chip optically.

B1: ICln promoter minimal essential region (-154/-113), EMSA probe (dsDNA)
DNA 1: TAGAATGTCTCATCTCTATGGTCGACGGCGTTCAGATTCCG
DNA 2: CGGAATCTGAACGCCGTCGACCATAGAGATGAGACATTCTA
For B1, the binding result in data set [1] is recorded as “binds”.

B2: ICln promoter minimal essential region (-154/-113), SPR (dsDNA)
DNA 1: TAGAATGTCTCATCTCTATGGTCGACGGCGTTCAGATTCCG
DNA 2: CGGAATCTGAACGCCGTCGACCATAGAGATGAGACATTCTA
Consider B2, for which the binding result in data set [2] is “binds”.
